Results: US20220356230A1

Molecular target: VSV G protein on VSV delta G pseudotyped virus-like particles (Vesicular stomatitis virus) (UniProt P03522)

Row | Substance | VSV-VLP Binding Signal (RLU)
1 | mAb10933 (antibody) | 507
2 | mAb10934 (antibody) | 3880
3 | mAb10936 (antibody) | 2320
4 | mAb10987 (antibody) | 1840
